Results on one molecule are retold here after article PMC9638876 (EMBO Reports, 2022).

For this test, the target named is GST-tagged Gcn4 (transcription factor Gcn4) (S. cerevisiae, UniProt P03069 1-281). Kind of test: pull-down.
Chain of GST-tagged Gcn4 (transcription factor Gcn4) (P03069 whole entry): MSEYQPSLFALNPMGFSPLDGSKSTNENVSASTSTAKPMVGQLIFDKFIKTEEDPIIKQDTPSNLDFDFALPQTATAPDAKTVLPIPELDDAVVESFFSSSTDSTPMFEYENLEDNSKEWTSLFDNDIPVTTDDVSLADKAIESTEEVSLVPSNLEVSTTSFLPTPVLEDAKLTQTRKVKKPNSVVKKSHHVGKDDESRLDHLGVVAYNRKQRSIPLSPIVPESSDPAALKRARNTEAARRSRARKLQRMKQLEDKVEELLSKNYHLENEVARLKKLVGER

B1: His-tagged Rpb9 (RNA polymerase II subunit Rpb9) (natural protein, S. cerevisiae, UniProt P27999 1-122, looked up)
chain: MTTFRFCRDCNNMLYPREDKENNRLLFECRTCSYVEEAGSPLVYRHELITNIGETAGVVQDIGSDPTLPRSDRECPKCHSRENVFFQSQQRRKDTSMVLFFVCLSCSHIFTSDQKNKRTQFS
For B1, the binding result is given as “binds”.
